The target of the data set is T1, CD271 (NGFR, p75NTR)/Fc chimera (Homo sapiens, UniProt P08138 P08138:29-250).
T1 chain: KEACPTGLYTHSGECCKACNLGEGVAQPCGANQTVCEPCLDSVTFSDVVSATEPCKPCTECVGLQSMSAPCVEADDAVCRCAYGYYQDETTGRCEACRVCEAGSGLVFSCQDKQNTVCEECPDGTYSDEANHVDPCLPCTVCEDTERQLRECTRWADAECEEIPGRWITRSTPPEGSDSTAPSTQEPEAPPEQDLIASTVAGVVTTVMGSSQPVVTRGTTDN
Briefly: size exclusion HPLC, 0.01 M PBS pH 7.4, room temperature, aptamer to protein 5:1; complex elutes at 21.2 min. The note with it: tags: human IgG1 Fc chimera, Sigma-Aldrich N8898 (lyophilized with PBS salts and BSA); chain copies: 2; label: biotin.

B1: 1391-Motif (ssDNA)
DNA: TACGACTCACTATAGGGATCCAAGAAAGAAAAAGGAGAAAGGGGGGGGGGAATTCCCTTTAGTGAGGGTT
modifications: biotinylated for SPR
Consider B1, for which the binding result is “binds”.

The values above are taken from patent publication US20150376619, “APTAMERS THAT BIND CD271” (VIVONICS, INC., published 2015).
